Assay results reported in patent publication US20240336672A1.

Columns and labels:
Details in all cases: remark: other sources report otherwise
[1] = molecular target: SARS-CoV-2 RBD (B.1.351) domain (SARS-CoV-2); assay: ELISA; parameters: unit not given beside the values
[2] = molecular target: T1, SARS-CoV-2 Spike ectodomain (tri-S), Wuhan (SARS-CoV-2), P0DTC2; assay: tri-S/ACE2 blocking ELISA
[3] = molecular target: SARS-CoV-2 RBD (B.1.351) domain (SARS-CoV-2); assay: RBD-ACE2 competition ELISA; parameters: unit not given beside the values
[4] = molecular target: SARS-CoV-2 RBD (P.1) domain (SARS-CoV-2); assay: RBD-ACE2 competition ELISA; parameters: unit not given beside the values
[5] = molecular target: SARS-CoV-2 RBD (B.1.1.7) domain (SARS-CoV-2); assay: RBD-ACE2 competition ELISA; parameters: unit not given beside the values
[6] = molecular target: T1, SARS-CoV-2 Spike ectodomain (tri-S), …; assay: competition ELISA vs bio-Cv2.1169
[7] = molecular target: T1, SARS-CoV-2 Spike ectodomain (tri-S), …; assay: SPR (Biacore), IgG immobilized, viral protein as analyte

B1: Cv2.3194 (recombinant human IgG1) (antibody)
heavy: EVQLVESGGGLIQPGGSLRLSCAASGITVTSNYMSWVRQAPGKGLEWVSVIYPGGSTFYADSVKGRFTISRDNSKNTLYLQMNSLRAEDTAVYYCARDLVVYGMDVWGQGTTVTVSSASTKGPSVFPLAPSSKSTSGGTAALGCLVKDYFPEPVTVSWNSGALTSGVHTFPAVLQSSGLYSLSSVVTVPSSSLGTQTYICNVNHKPSNTKVDKKVEPKSCDKTHTCPPCPAPELLGGPSVFLFPPKPKDTLMISRTPEVTCVVVDVSHEDPEVKFNWYVDGVEVHNAKTKPREEQYNSTYRVVSVLTVLHQDWLNGKEYKCKVSNKALPAPIEKTISKAKQPREPQVYTLPPSRDELTKNQVSLTCLVKGFYPSDIAVEWESNGQPENNYKTTPPVLDSDGSFFLYSKLTVDKSRWQQGNVFSCSVMHEALHNHYTQKSLSLSPGK
light: EIVLTQSPGTLSLSPGERATLSCRASQSVSSSYLAWYQQKPGQAPRLLIYGASSRATGIPGRFSGSGSGTDFTLTISRLEPEDFAIYYCQQGVTFGGGTKVEIKRTVAAPSVFIFPPSDEQLKSGTASVVCLLNNFYPREAKVQWKVDNALQSGNSQESVTEQDSKDSTYSLSSTLTLSKADYEKHKVYACEVTHQGLSSPVTKSFNRGEC
Question: B1 was tested. Which AUC [1] did it give?
Answer: 12

Question: What about the AUC (RBD bind.) [1] of the same binder?
Answer: 12

Question: And the % binding inhibition [2]?
Answer: 97%

Question: What about the AUC (RBD block.) [3] of the same binder?
Answer: 168

Question: And the AUC (RBD block.) [4]?
Answer: 139

Question: What about the AUC (RBD block.) [5] of the same binder?
Answer: 147

Question: What about the % inhibition (competition) [6] of the same binder?
Answer: 81

Question: And the Kd [7]?
Answer: 0.459 nM

Question: And the koff [7]?
Answer: 0.00112 s⁻¹

Question: What about the kon [7] of the same binder?
Answer: 2.45e+06 M⁻¹ s⁻¹
